Results published in publication PMC8937303.

Molecular target: pFGFR2_(Cyto) (UniProt P21802)
Experiment: MST

Chain of pFGFR2_(Cyto) (P21802 400-821): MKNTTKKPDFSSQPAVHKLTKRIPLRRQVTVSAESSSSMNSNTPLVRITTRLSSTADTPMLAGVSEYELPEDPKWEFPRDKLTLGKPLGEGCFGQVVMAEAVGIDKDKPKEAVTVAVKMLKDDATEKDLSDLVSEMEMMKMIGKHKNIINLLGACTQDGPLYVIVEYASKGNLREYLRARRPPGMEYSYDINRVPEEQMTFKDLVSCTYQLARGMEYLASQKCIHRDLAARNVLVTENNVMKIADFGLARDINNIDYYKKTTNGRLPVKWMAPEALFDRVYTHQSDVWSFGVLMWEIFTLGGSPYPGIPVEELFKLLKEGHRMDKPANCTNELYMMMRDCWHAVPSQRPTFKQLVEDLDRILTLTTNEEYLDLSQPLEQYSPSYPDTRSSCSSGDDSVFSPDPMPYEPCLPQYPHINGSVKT

Kd [µM]	Substance
0.223	PLCγ1_(2SH2) (from UniProt P19174 545-791) (domain or fragment)
25.1	SHP2_(2SH2) (from UniProt Q06124 1-221) (domain or fragment)
